First the molecules themselves.
B1: TRIDENT-2 (other)
chain 1: DIQMTQSPSTLSASVGDRVTITCRASQSVGYMHWYQQKPGKAPKLLIYDTSKLASGVPSRFSGSGSGTEFTLTISSLQPDDFATYYCFQGSGYPFTFGGGTKLEIKGGGSGGGGEVKLDETGGGLVQPGRPMKLSCVASGFTFSDYWMNWVRQSPEKGLEWVAQIRNKPYNYETYYSDSVKGRFTISRDDSKSSVYLQMNNLRVEDMGIYYCTGSYYGMDYWGQGTSVTVSSASTKGEVAACEKEVAALEKEVAALEKEVAALEKGGGDKTHTCPPCPAPEAAGGPSVFLFPPKPKDTLMISRTPEVTCVVVDVSHEDPEVKFNWYVDGVEVHNAKTKPREEQYNSTYRVVSVLTVLHQDWLNGKEYKCKVSNKALPAPIEKTISKAKGQPREPQVYTLPPSREEMTKNQVSLWCLVKGFYPSDIAVEWESNGQPENNYKTTPPVLDSDGSFFLYSKLTVDKSRWQQGNVFSCSVMHEALHNHYTQKSLSLSPGK
chain 2: DVVMTQTPFSLPVSLGDQASISCRSSQSLVHSNGNTYLRWYLQKPGQSPKVLIYKVSNRFSGVPDRFSGSGSGTDFTLKISRVEAEDLGVYFCSQSTHVPWTFGGGTKLEIKGGGSGGGGQVTLRESGPALVKPTQTLTLTCTFSGFSLSTSGMSVGWIRQPPGKALEWLADIWWDDKKDYNPSLKSRLTISKDTSKNQVVLKVTNMDPADTATYYCARSMITNWYFDVWGAGTTVTVSSASTKGKVAACKEKVAALKEKVAALKEKVAALKE
heavy: QVQLVQSGAEVKKPGASVKVSCKASGYTFTNYGMNWVRQAPGQGLEWMGWINTNIGEPTYTEEFKGRVTMTRDTSISTAYMELSRLRSDDTAVYYCARDDGYGNRVSYWGQGTLVTVSSASTKGPSVFPLAPSSKSTSGGTAALGCLVKDYFPEPVTVSWNSGALTSGVHTFPAVLQSSGLYSLSSVVTVPSSSLGTQTYICNVNHKPSNTKVDKRVEPKSCDKTHTCPPCPAPEAAGGPSVFLFPPKPKDTLMISRTPEVTCVVVDVSHEDPEVKFNWYVDGVEVHNAKTKPREEQYNSTYRVVSVLTVLHQDWLNGKEYKCKVSNKALPAPIEKTISKAKGQPREPQVYTLPPSREEMTKNQVSLSCAVKGFYPSDIAVEWESNGQPENNYKTTPPVLDSDGSFFLVSKLTVDKSRWQQGNVFSCSVMHEALHNRYTQKSLSLSPGK
light: DIQMTQSPSSLSASVGDRVTITCKASQDISNYLSWFQQKPGKAPKTLIYRANRLQSGVPSRFSGSGSGTDFTLTISSLQPEDFATYYCLQHDEFPWTFGQGTKLEIKRTVAAPSVFIFPPSDEQLKSGTASVVCLLNNFYPREAKVQWKVDNALQSGNSQESVTEQDSKDSTYSLSSTLTLSKADYEKHKVYACEVTHQGLSSPVTKSFNRGEC
notes: also called RSV×FITC×HER2 control molecule; TA×FITC×RSV control molecule
B2: hCD137 MAB-3 (1B.4) (antibody, V domains shown)
VH: QVQLVQSGAEVKKPGASVKVSCKASGYTFTSYWINWVKQAPGQGLEWIGNIYPSDSYTNYNQKFKDKATITADKSTSTAYMELSSLRSEDTAVYYCTRDYGSAYSMSTWGQGTTVTVSS
VL: DIQMTQSPSSLSASVGDRVTITCQASQDISNYLNWYQQKPDKTVKLLIYYTSRLRSGVPSRFSGSGSGTDFTFTISSLQPEDIATYFCQQGDTLPYTFGQGTKLEIK
B3: hCD137 MAB-3 (1F.3) (antibody, V domains shown)
VH: QVQLVQSGAEVKKPGASVKVSCKASGYTFTSYWINWVKQAPGQGLEWAGNIYPSDSYTNYNQKFKDKATITADKSTSTAYMELSSLRSEDTAVYYCTRDYGSAYSMSTWGQGTTVTVSS
VL: DIQMTQSPSSLSASVGDRVTITCRPSQDISNYLNWYQQKPDKTVKLLIYYTSRLRSGVPSRFSGSGSGTDFTFTISSLQPEDIATYFCQQGDTLPYTFGQGTKLEIK
B4: hCD137 MAB-3 (1B.6) (antibody, V domains shown)
VH: QVQLVQSGAEVKKPGASVKVSCKASGYTFTSYWINWVKQAPGQGLEWIGNIYPSDSYTNYNQKFKDKATITADKSTSTAYMELSSLRSEDTAVYYCTRDYGSAYSMSTWGQGTTVTVSS
VL: DIQMTQSPSSLSASVGDRVTITCRPSQDISNYLNWYQQKPDKTVKLLIYYTSRARSGVPSRFSGSGSGTDFTFTISSLQPEDIATYFCQQGDTLPYTFGQGTKLEIK
B5: hCD137 MAB-3 (1G.7) (antibody, V domains shown)
VH: QVQLVQSGAEVKKPGASVKVSCKASGYTFTSYWINWVRQAPGQGLEWAGNIYPSDSYTNYNQKFKDKATITADKSTSTAYMELSSLRSEDTAVYYCTRDYGSAYSMSTWGQGTTVTVSS
VL: DIQMTQSPSSLSASVGDRVTITCQASQDISNYLNWYQQKPDKTAKLLIYYTSRLRSGVPSRFSGSGSGTDFTFTISSLQPEDIATYFCQQGDTLPYTFGQGTKLEIK
B6: hCD137 MAB-3 (1G.8) (antibody, V domains shown)
VH: QVQLVQSGAEVKKPGASVKVSCKASGYTFTSYWINWVRQAPGQGLEWAGNIYPSDSYTNYNQKFKDKATITADKSTSTAYMELSSLRSEDTAVYYCTRDYGSAYSMSTWGQGTTVTVSS
VL: DIQMTQSPSSLSASVGDRVTITCQASQDISNYLNWYQQKPDKTAKLLIYYTSRARSGVPSRFSGSGSGTDFTFTISSLQPEDIATYFCQQGDTLPYTFGQGTKLEIK
B7: hCD137 MAB-3 (1B.11) (antibody, V domains shown)
VH: QVQLVQSGAEVKKPGASVKVSCKASGYTFTSYWINWVKQAPGQGLEWIGNIYPSDSYTNYNQKFKDKATITADKSTSTAYMELSSLRSEDTAVYYCTRDYGSAYSMSTWGQGTTVTVSS
VL: DIQMTQSPSSLSASVGDRVTITCRPSQDISNYLNWYQQKPDKTVKLLIYYTGRLRSGVPSRFSGSGSGTDFTFTISSLQPEDIATYFCQQGDTLPYTFGQGTKLEIK
B8: hCD137 MAB-3 (1E.14) (antibody, V domains shown)
VH: QVQLVQSGAEVKKPGASVKVSCKASGYTFTSYWINWVRQAPGQGLEWIGNIYPSDSYTNYNQKFKDKATITADKSTSTAYMELSSLRSEDTAVYYCTRDYGSAYSMSTWGQGTTVTVSS
VL: DIQMTQSPSSLSASVGDRVTITCQASQDISNYLNWYQQKPDKTVKLLIYYTTRARSGVPSRFSGSGSGTDFTFTISSLQPEDIATYFCQQGDTLPYTFGQGTKLEIK
B9: hCD137 MAB-3 (1G.14) (antibody, V domains shown)
VH: QVQLVQSGAEVKKPGASVKVSCKASGYTFTSYWINWVRQAPGQGLEWAGNIYPSDSYTNYNQKFKDKATITADKSTSTAYMELSSLRSEDTAVYYCTRDYGSAYSMSTWGQGTTVTVSS
VL: DIQMTQSPSSLSASVGDRVTITCQASQDISNYLNWYQQKPDKTVKLLIYYTTRARSGVPSRFSGSGSGTDFTFTISSLQPEDIATYFCQQGDTLPYTFGQGTKLEIK
B10: hCD137 MAB-3 (1G.4) (antibody, V domains shown)
VH: QVQLVQSGAEVKKPGASVKVSCKASGYTFTSYWINWVRQAPGQGLEWAGNIYPSDSYTNYNQKFKDKATITADKSTSTAYMELSSLRSEDTAVYYCTRDYGSAYSMSTWGQGTTVTVSS
VL: DIQMTQSPSSLSASVGDRVTITCQASQDISNYLNWYQQKPDKTVKLLIYYTSRLRSGVPSRFSGSGSGTDFTFTISSLQPEDIATYFCQQGDTLPYTFGQGTKLEIK
B11: hCD137 MAB-3 (1B.10) (antibody, V domains shown)
VH: QVQLVQSGAEVKKPGASVKVSCKASGYTFTSYWINWVKQAPGQGLEWIGNIYPSDSYTNYNQKFKDKATITADKSTSTAYMELSSLRSEDTAVYYCTRDYGSAYSMSTWGQGTTVTVSS
VL: DIQMTQSPSSLSASVGDRVTITCRPSQDISNYLNWYQQKPDKTVKLLIYYTTRLRSGVPSRFSGSGSGTDFTFTISSLQPEDIATYFCQQGDTLPYTFGQGTKLEIK
B12: hCD137 MAB-3 (1B.5) (antibody, V domains shown)
VH: QVQLVQSGAEVKKPGASVKVSCKASGYTFTSYWINWVKQAPGQGLEWIGNIYPSDSYTNYNQKFKDKATITADKSTSTAYMELSSLRSEDTAVYYCTRDYGSAYSMSTWGQGTTVTVSS
VL: DIQMTQSPSSLSASVGDRVTITCRPSQDISNYLNWYQQKPDKTAKLLIYYTSRLRSGVPSRFSGSGSGTDFTFTISSLQPEDIATYFCQQGDTLPYTFGQGTKLEIK
B13: hCD137 MAB-3 (1E.9) (antibody, V domains shown)
VH: QVQLVQSGAEVKKPGASVKVSCKASGYTFTSYWINWVRQAPGQGLEWIGNIYPSDSYTNYNQKFKDKATITADKSTSTAYMELSSLRSEDTAVYYCTRDYGSAYSMSTWGQGTTVTVSS
VL: DIQMTQSPSSLSASVGDRVTITCQASQDISNYLNWYQQKPDKTVKLLIYYTSRARSGVPSRFSGSGSGTDFTFTISSLQPEDIATYFCQQGDTLPYTFGQGTKLEIK
B14: hCD137 MAB-3 (1B.13) (antibody, V domains shown)
VH: QVQLVQSGAEVKKPGASVKVSCKASGYTFTSYWINWVKQAPGQGLEWIGNIYPSDSYTNYNQKFKDKATITADKSTSTAYMELSSLRSEDTAVYYCTRDYGSAYSMSTWGQGTTVTVSS
VL: DIQMTQSPSSLSASVGDRVTITCRPSQDISNYLNWYQQKPDKTVKLLAYYTGRLRSGVPSRFSGSGSGTDFTFTISSLQPEDIATYFCQQGDTLPYTFGQGTKLEIK
B15: hCD137 MAB-3 (1E.4) (antibody, V domains shown)
VH: QVQLVQSGAEVKKPGASVKVSCKASGYTFTSYWINWVRQAPGQGLEWIGNIYPSDSYTNYNQKFKDKATITADKSTSTAYMELSSLRSEDTAVYYCTRDYGSAYSMSTWGQGTTVTVSS
VL: DIQMTQSPSSLSASVGDRVTITCQASQDISNYLNWYQQKPDKTVKLLIYYTSRLRSGVPSRFSGSGSGTDFTFTISSLQPEDIATYFCQQGDTLPYTFGQGTKLEIK
B16: hCD137 MAB-3 (1E.3) (antibody, V domains shown)
VH: QVQLVQSGAEVKKPGASVKVSCKASGYTFTSYWINWVRQAPGQGLEWIGNIYPSDSYTNYNQKFKDKATITADKSTSTAYMELSSLRSEDTAVYYCTRDYGSAYSMSTWGQGTTVTVSS
VL: DIQMTQSPSSLSASVGDRVTITCRPSQDISNYLNWYQQKPDKTVKLLIYYTSRLRSGVPSRFSGSGSGTDFTFTISSLQPEDIATYFCQQGDTLPYTFGQGTKLEIK

Usually EC50 (read off the curve) stands for the midpoint of the concentration-response curve.

The target in one assay is T1, HER2/neu on the surface of target cells (N87, JIMT-1, MCF-7, MDA-MB231) (UniProt P04626 23-1255, limits assumed).
T1 construct: whole, on cells
The assay is described as follows: flow cytometry on N87 cells, anti-hFc APC MFI. Background: Flow cytometry measures light scatter and fluorescence of single cells or particles in a stream.
Consider B1, for which the “EC50 (read off the curve)” value was about 1 nM.

A further assay addresses T1, HER2/neu on the surface of target cells …. The assay is described as follows: flow cytometry on MCF-7 cells, anti-hFc APC MFI.
For the molecule B1, the “EC50 (read off the curve)” value was about 0.2 nM.

Another assay has the same target. The assay is described as follows: flow cytometry on JIMT-1 cells, anti-hFc APC MFI.
In the case of B1, the concentration giving a half-maximal response (EC50 (read off the curve)) is about 0.7 nM.

The target of another assay is T2, extracellular portion of human CD137 fused to a histidine-containing peptide (human, UniProt Q07011 24-186).
T2 construct: extracellular domain; also called huCD137; His-tagged soluble human CD137
The assay is described as follows: Attana Cell A200 QCM; antibody captured by anti-human IgG Fc; soluble human CD137-His; grade relative to (1B.3).
For the molecule B2, the binding result is “binds”.
Consider B3, for which the binding result is “binds”.
Still for that read-out and setting: the same measure for B4: “binds”.
On the same count and under the same terms, the same measure for B5: “binds”; for B6: “binds”; for B7: “binds”.
With B8, the binding result is “binds”.
Turning to B9, the binding result was “binds”.
On the same count and under the same terms, the same measure for B10: “binds”.
For B11, the binding result is reported as “binds”.
Turning to B12, the binding result was “binds”.
As for B13, the binding result is reported as “binds”.
The same measure, in the same setting: the entry for B14 is “binds”; for B15 it is “binds”.
On the same count and under the same terms, the entry for B16 is “binds”.

Source of the values: patent US20220406376A1 (MacroGenics, published 2022).
